Assay results published in the DeepSol protein solubility set.

assay: soluble on expression in E. coli; label from the status in PepcDB or PDB records

Row | Sequence | soluble on expression in E. coli
1 | MIKTVVGSYPVVKGKPDSIPDKIKKFFGKYDKYEYSIKKALDDQLNVGIDILSDGQVRGDMVEIFVSNMYGFEGRRVVNRVEFVKPITLNDIKYSLKYISKKDPEKGVKGIITGACTLASSIRVENYYSDNKDENLIYDLAGALNKEALSIQNHVKMIQFDEPILSTGLYDLEVAKKAMDIITSGINVPVAMHVCGDVSKIFYKLNEFNVDILDHEFASCRKNLEILNEITKKVGFGCINTKLKSVDSVDEVKALISEGIEILKNNSKFEGSINDSVIIDPDCGMRLLPVDVAYSKLNNMVTAANEIEKDLILEHHHHHH | not soluble
2 | MARPLKQGIDYFPLSVDFLRDIKVRKIKRACGPYTVEILLCLLGNIYRETGYYIGWDEDTMFLVADEVGAKEGLVEETVNKAVQVGFFNQEKFNEYRILTSNGIQKRYLEATKKRKEVVISDIYLVNDTIKDEETLVNGVDNEQSKVNKSKVDKSKVNKNNKEKPAVQLSSEKDFLENPLGDKKTAELIAYYSKNVSLATPVNMTNLAYDLKDFNGDLDLLKEAINICSSNVKTYAYFAGILKQWRANGINTHADFLKKVNKKSKQKNKRDSEPPLNDYSGLF | not soluble
3 | MAHHHHHHMSSSSSALDVPLVEVICSYPTREGLCAECPALLLLVYEHVVAELQAGRRAVDVFRGTSRQDHLSELLAVRSLSELFERLYPLSQSCILDESTASSQFWRQARVTLEAAWAAPHDAKGRALLTQVRGQPRFHFCGPRDVETPGEGYPLHPVSLERALATSKRFLRTAMTCALDGSTDALAGRQPELRAVLQLAHLVPLTPSTGAPPRKEVTPEGLSFCMVSLQQRWWILVNAALERVLLLTRAAVNGNGNTSGSSGVTKPLLWQLLAVLSVLDTTQYVFAFPERQQDLAAHHLLARLSEVGLVYPLLSNDRKCFVLSPDFLHAIHWHASAPLSLTFNHHLLRSASGVSGAGIGDLRREDTDTIITETNFRLFAYTNDADLLNILNQFAELEEIVNGNLHCYRVTRASFAAAMRKGITAAQVLRFLSLRAHPSMLRRHGEREENGDTASPSSAGGASSSFTFSASPRRGAVAGTCGSTTSIDAVSTLVVPQSFCDQMRMWESECRRVVFEHHVVLLRNMSTQQQKAVTAYLTDAGEVDAVVHAERGYMVIREEVFERLVAPLLG | not soluble
4 | MGHEAKHPIIIGITGNIGSGKSTVAALLRSWGYPVLDLDALAARARENKEEELKRLFPEAVVGGRLDRRALARLVFSDPERLKALEAVVHPEVRRLLMEELSRLEAPLVFLEIPLLFEKGWEGRLHGTLLVAAPLEERVRRVMARSGLSREEVLARERAQMPEEEKRKRATWVLENTGSLEDLERALKAVLAELTGGAKEGRG | soluble
5 | QVPENNGYAGDKPLKTYIHDTVKGDLYYTAGSSYYSGKAYPGDTYKVNHNFDLPEGATIKLARLYNYWTWSSEGMEGRNPEMKLSFDGQELEPDREYSDRKGWGSYDYPSGTWAYDVSSCITGSGTFTTEIENTGPDASCVCIEGVGLLIVYEDPDGRNIEYWINEGADELNSQMDENGSPLYYTAPNQTICEMLRPALQFPIRSATLWTITQSGNWENNTLIVNDKKFTGICDGKPYPDLEIDKRNVTDCLKAGENIILFQASGDYVISSGSFLVVEKDLLAEESKSSTEEASEKSEETGSTPETSGTESKKAPGFGFVFAPALLTGRKLVSGLRDK | not soluble
6 | MAPVVCDVCGVRRAVVLQRHTGRRLCRECFREDIVGRVRREVERWGMIGPGETVLLGLSGGKDSYVLLDALSEIVGPSRLVAVSIVEGIPGYNREGDIEKIRRVAAARGVDVIVTSIREYVGASLYEIYSRARGRGAGHAACTYCGISRRRILALYARLYGAHKVATAHNLDDEAQTAIVNFLRGDWVGMLKTHPLYRSGGEDLVPRIKPLRKVYEWETASYVVLHRYPIQEAECPFINMNPTLRARVRTALRVLEERSPGTLLRMMERLDEELRPLAQAMKPSSLGRCERCGEPTSPKRRLCKLCELLEEAGFQEPIYAIAGRGKRLRLQSPTASPG | not soluble
7 | RADLQYLLNHPDPTEYKEKPLPYPFLTHWLHDIQEQTISKRLDESAGSAGEVSFIFVPCYLNRKDGIFGLGYYDLLIGMDLTVFPSYYEPWGYTPLES | not soluble
8 | ETTSCEFSVSPSGLAFCDKVVGYGPEAVKGQLIKAHYVGKLENGKVFDSSYNRGKPLTFRIGVGEVIKGWDQGILGSDGIPPMLTGGKRTLRIPPELAYGDRGAGCKGGSCLIPPASVLLFDIEYIGKA | soluble
9 | MADTEGTSSSIPTSTNSSRHRASRGRGGRFRQAPRQVGANTADNLDAAPLMNPRGGHRGGSGNKRGRGQKEATSASRLQMQPEANFTFNPNAATFNPAQSVLFDPSVPPPTIGASTHSNQNSRQQEPSQNRRRRGGQQNTQRRQLEIQEQRGDSHPQNQSRQNNRNQLNVDRIANQQNKSVQNPSRNPGNSRRGQGARRREQKEEPLTEEETKILADKPLREGLVYLLENNKYECAICYTRITTRQGVWSCKTCYHIFHISTGCITDWARSSRDKEGANTWRCPTCQTENETMPYNYYCFCGRMRNPNFRVGEVPHSCGETCGGARKFGCPHPCTELCHPGPCIECKLFTTKSCNCGKTKKSVRCGSDQEVMCETVCGKQLSCGQHNCERICHSGDCGECTVILEQDCFCGKTPKEVSCNPCAHEKYSCGSECDGMFSCGIHHCTKKCHDKECGECETGANRIRTCPCGRNTLQSLGVTRKKCTDMVPTCDSVCDKWLTCGTPGKNHHCREKCHEGPCPPCNLNTSVICRCGTSKGVIPCDEYLQIMKTTGEYLCTKRCRKKKSCGMHKCQEVCCIQDEHFCLQMCNKRLSCGIHTCENVCHAGQCRPCLQASFDEQFCHCGHTVRMPPIPCGARLPVCSQPCVRPHSCDHSVSHKCHGEQNCPPCTQLTEKMCYGGHRVRKNIPCHIDSVSCGVVCKKPLKCGVHVCQRTCHGEECEKEGEKCTKKCETIRELCEHPCALPCHEDSPCEPSPCKASVRISCECGRIKKDAPCCEVDKMILSKLEKEEEEKSESDGEEKVVKEGILKRSTSFSQLNCMKCDDECKKLERNRKVAEALEVDTDEYGMNKLAPTISFPCYLKEMVRTNIDFVKSVEKILIDLVIQILSGEAYHDTFRAHLPAMSIEKRRFVHEYANFFNIASESVDSPPKRSIVLTAVRGKSHQPLVLISDLVNYKGALKTPGPAVIRKDIMDQALSKKEETEGLMKPLRCTEKMVVRREARPMKEITAPIPLKQQNQFALLGSDVDSDDEESNVPTTSNLVSSPPKDWWKDEEEGWQKVQQKEYVVEVERDMTEDEIEAAKKLDEGPTWEDQCDEDAPATETSSAIESPAKEEPVAELLE | soluble
10 | MRLCSVALLLFTVAYVKSAIDINVPSTLYIKEGDTGTIGLPVSANYRREVHNPKGTMDEQLYRVCNGKNKTTCGFWEDVKTKKKVKSGVTTYNKNKKALVIKKMLVSDFGNYMTGNKKKSRYVQQLVSLGK | not soluble
11 | MRIGQYQLRNRLIAAPMAGITDRPFRTLCYEMGAGLTVSEMMSSNPQVWESDKSRLRMVHIDEPGIRTVQIAGSDPKEMADAARINVESGAQIIDINMGCPAKKVNRKLAGSALLQYPDVVKSILTEVVNAVDVPVTLKIRTGWAPEHRNCEEIAQLAEDCGIQALTIHGRTRACLFNGEAEYDSIRAVKQKVSIPVIANGDITDPLKARAVLDYTGADALMIGRAAQGRPWIFREIQHYLDTGELLPPLPLAEVKRLLCAHVRELHDFYGPAKGYRIARKHVSWYLQEHAPNDQFRRTFNAIEDASEQLEALEAYFENFA | not soluble
12 | MELISVTKDNLEQEHICCAISNNKDCQVLSKKNWLNEQFEDGLVFLKGNVRGKCFIEYMPAEKAWAPVEADGYMYINCLWVSGQFKGQGYSNLLLEECIRDSREKGRLGLVVLTSKKKMPYLSDPKFLGYKGFIRADSAEPYFELFYLPFEADAPKPQFKEQVRQPRTEENGFVLYYTRQCPFTAKYVPLIESAAEENNIPFKAVLFKTSGEARNAPAPFTTYSLFYNGRFITNEILSEKRFEKILEAEGLG | not soluble
13 | SLSKEKISVQENKKMATIRDISLKCGVSVSTVSKVLNGYREIGEETSKAVMKAAEELGYVPNSYARQLKLKKSYNIGVLFDTLSVYGLKNEYFAHILAALRENASQGGYDITFIENNIGNRRMTYLEHCKYRNFDGICIVCADFTNPEVLDVVNSDFPVVTIDHSFNEAISILSDNSGGMRDLAQYIVSMGHKKIAYIHGNKSSVTHNRLVAFHQVLAEHDIVIPEYYMKEGEYRLAESAEEFTYELLNLSDRPTCILASDDYAALGVIKAIKRAGLRFPEDISVAGFDGISISQALEPKLTTVKQDTEKLGEQAAKKLICLMESPMTTPLEHIVLKAELIIGDSVKKLREG | soluble
14 | MNQLCRAVPSLRSAVRLASSGRLYTKKHEWVLVENGVGTVGITDFATEQLGDVVFIELPDEGTEISKGDSTGAVESVKAASDIYAPISGTVTQKNVKLEEEAGLINKSPFEKGWLYKLKVKSADELEKLLNEEQYAKFKKDEEAAH | not soluble
15 | MKNVGDLMQRLQKMMPAHITPAFKTGEELLAWQKEQGEIRAAALARENRAMKMQRTFNRSGIRPLHQNCSFDNYRVECDGQMNALSKARQYVDEFDGNIASFVFSGKPGTGKNHLAAAICNELLLRGKSVLIITVADIMSAMKDTFSNRETSEEQLLNDLSNVDLLVIDEIGVQTESRYEKVIINQIVDRRSSSKRPTGMLTNSNMEEMTKMLGERVMDRMRLGNSLWVNFTWDSYRSRVTGKEYLEHHHHHH | soluble
16 | MRKTLNVVVNGERTEIVTYKGTVQGALHDNGITLAPKDKVTPSLESKISKNETITINKAVNVKVKTEDGEKEIVSAEDNVEDMLKSEGISFDDDDKILPDKKESLKDGMNVEVVKVDVKKVTEVHPIEFTTEVKKDESKPQTYTEVLNDGQDGEKKVTRELVYENGKEVSNNVIQELVVKEPVNKEVVKGTKETQTLSRGGESINFKKKLSVKSTAYNHPLGSAEAYTASGMHVLRDPNGYSTIAVDPSVIPLGTKLYVEGYGYAIAADTGGAIKGNRVDLFFNTEAEASNWGVRNLDVYILNLEHHHHHH | soluble
17 | LLTLSDIGLSVHRYSNRLDVFTQALEGGKALGDVSVDVYDDNGKVVAQGKTDSDGHARLPLPAKAAVVLAHKDEQTSMLRLNSSALDLAEFDISGPQAHPLQFFIFGPRDLYRPGETVLLNGLLRDSDGKNVKPQPITVEVRRPDDQVSRKFVWEADSSGFYQYQLQLAEEAPTGRWQLVFDLGDGKPQLYEFKVEDFLPERLALELKGSDAPVAPADNPEFDITGRYLYGAPASGNTLTGQVYVRPLREAVAKLPGYQFGSITE | not soluble
18 | MTQITKFHGVFPPVPTIVNAQGELDKVGMATLLDHLIASKVNGVLLLGSGGEFCHMTNALRLETAEFCVRHINRRIPVLLGISSTSTQEVIEYGQHADRLEVDAVLVLNPYYARLTDEYIYHHFKTVANNIKSPVILYNFPALTGQDLSVDLITRLAQDHPNIIGIKDTVDNISHIREIINNVRPVRPDFVIFSGYDEYMMDTLILGGNGGIPATANFAPQLTCGIYRAWCEKEYETMFGLQRRLSALSTIYSLDSPFFGIIKKAIQLSGVDISTHVMPPVLPANEEHISNLKQILQRAGL | not soluble
19 | MSLKKGYELLIFDWDGTLADSIGRIVEAMNVAAERAGEAQSSDAAVKGIIGLALDEAIHTLYPHLAPAEVASFRQHYADVYVALDQQPSPLFDGVVESLDAFRAEGYRLAVATGKARRGLDRVLKANGWERFFDITRAADETRGKPHPLMLEEILGHCGVEPSRALMVGDSAFDLQMASNAGMHSVAVGYGAMSLQALAEFGPQVCIDHFSQLREWLGGSAIPLPREGHHHHHH | soluble
20 | MAEIVLTQSPGTQSLSPGERATLSCRASQSVGNNKLAWYQQRPGQAPRLLIYGASSRPSGVADRFSGSGSGTDFTLTISRLEPEDFAVYYCQQYGQSLSTFGQGTKVEVKLVPR | soluble
